In PMC6838200 (2019):

How the values were obtained:
[1] = target: T1, Spa2-C (Spa2 C-terminal region, 1306-1466aa) (S. cerevisiae, UniProt P23201 1306-1466); test: SPR; bivalent model, koff1
T1 chain: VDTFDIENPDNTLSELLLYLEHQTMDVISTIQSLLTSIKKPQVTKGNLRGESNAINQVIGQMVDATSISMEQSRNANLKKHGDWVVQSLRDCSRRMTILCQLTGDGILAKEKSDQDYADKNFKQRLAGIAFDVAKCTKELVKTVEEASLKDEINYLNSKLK

[2] = target: T1, Spa2-C (Spa2 C-terminal region, …); test: SPR; bivalent model, koff2 (second site)

B1: Aip5-N271 (domain or fragment)
chain: MVESLTVENQEHNVQPPSVTSAGDSYSTLATDLPLPSTNDIIESRDQLTESDLDEAINATENFAQELSSQRKSSKLKGHKKKNQGQIKANRDRDTIVKLSSSVGETEEASTRDAISHDLERKDDVIEIATDTINDATESPTQIPIDVNVVIKETSTNNVAEGTENVPPIKESTGIEVGNSPITRRKKNKKKKTTNRRGRNSSNPADTTDLSKQSTLDSILVGIEEYLQEDGSKNEDIKVNIVQDEPVNVEKMDIRTRNESSDKTFDIDVPN
For B1, which koff [1] is on record?
Its koff is 0.046 s⁻¹.

And the koff [2]?
Its koff is 0.00266 s⁻¹.
